Measured values as given in patent US20250042970A1 (AURINIA PHARMACEUTICALS, published 2025).

B1: Variant BAv8-10-Ig (Fc fusion, human)
chain: AGQCSQNEYFDHLLRACIPCQVRCSSNTPPLTCQRYCNAGVTNSVKGTNAERKSSVECPPSPAPPVAGPSVFLFPPKPKDTLMISRTPEVTCVVVDVSHEDPEVQFNWYVDGVEVHNAKTKPREEQFNSTFRVVSVLTVVHQDWLNGKEYKCKVSNKGLPAPIEKTISKTKGQPREPQVYTLPPSREEMTKNQVSLTCLVKGFYPSDISVEWESNGQPENNYKTTPPMLDSDGSFFLYSKLTVDKSRWQQGNVFSCSVMHEALHNHYTQKSLSLSPGK
notes: domain: Fc; also called Variant 8-10-Ig; BAv8-10-PIg18
B2: Variant BAv9-5-Ig (Fc fusion, human)
chain: AGQCSQNEYFDRLVRACIPCQLRCSSNTPPLTCQRYCNAGVTNSVKGTNAERKSSVECPPSPAPPVAGPSVFLFPPKPKDTLMISRTPEVTCVVVDVSHEDPEVQFNWYVDGVEVHNAKTKPREEQFNSTFRVVSVLTVVHQDWLNGKEYKCKVSNKGLPAPIEKTISKTKGQPREPQVYTLPPSREEMTKNQVSLTCLVKGFYPSDISVEWESNGQPENNYKTTPPMLDSDGSFFLYSKLTVDKSRWQQGNVFSCSVMHEALHNHYTQKSLSLSPGK
notes: domain: Fc; also called Variant 9-5-Ig; BAv9-5-PIg18

How the values were obtained:
FLAG-tagged human BAFF [1] = target: T1, FLAG-tagged human BAFF (human, UniProt Q9Y275 134-285, limits assumed); assay: BIACORE SPR
T1 construct: used in BIACORE (Ex. 9) and KINEXA (Ex. 11); also called huBAFF
Experimental: (§1) For human BAFF, cynomolgus monkey APRIL, and mouse APRIL measurements, mouse monoclonal antibody (IgG1) anti-FLAG M2 (Sigma Aldrich, Cat. No. F1804) was immobilized on CM3 sensor chips (GE Healthcare, Cat. No. BR-1005-41) according to the manufacturer's protocol. Antibody was diluted to 30 μg/ml in immobilization buffer (10 mM pH 5±0.20; GE Healthcare; GE Healthcare, Catalog No. BR-1003-51). […] Unreacted sites were quenched with 35 μl of 1M ethanolamine-HCl, pH 8.5 (GE Healthcare, GE Healthcare, Cat. No. BR-1000-50). This procedure typically yielded 3,000-4,000 response units (RU) of coupled antibody.
(§2) The fusion polypeptides were diluted in HBS-EP buffer and flowed over ligand-coated sensor chips. The variant BCMA-Ig and surrogate control fusion proteins were injected at three concentrations (1.5 nM, 15 nM, and 150 nM at 30 μl/min for 2 minutes per association phase) in a single binding cycle, followed by a 20 minute incubation with HBS-EP buffer containing no protein at the same flow rate. A similar protocol was followed for Z-TACI-Ig, except that the injections were at 4.5 nM, 45 nM, and 450 nM.
(§3) Using available information from the structures and published literature, several residues in BAv8-10 were targeted for substitution with conserved as well as non-conserved residues and their effect on BAFF and APRIL binding was assessed by BIACORE.

[2] = target: T2, FLAG-tagged cynomolgous APRIL (cynomolgus monkey, UniProt A0ACM8R0G4 110-250 (rhesus entry)); assay: BIACORE SPR
T2 construct: FLAG-tagged, expressed with TPA signal peptide; also called cyAPRIL
T2 sequence: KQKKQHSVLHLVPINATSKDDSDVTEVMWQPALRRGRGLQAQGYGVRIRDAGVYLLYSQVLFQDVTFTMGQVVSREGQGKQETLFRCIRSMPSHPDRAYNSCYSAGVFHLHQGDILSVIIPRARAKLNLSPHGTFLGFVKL
Experimental: as §1, §2, §3

FLAG-tagged human BAFF [3] = target: T1, FLAG-tagged human BAFF; assay: KinExA
[4] = target: T3, FLAG-tagged recombinant human APRIL (human, UniProt O75888 105-250); assay: KinExA
T3 construct: KINEXA ligand; also called huAPRIL
T3 sequence: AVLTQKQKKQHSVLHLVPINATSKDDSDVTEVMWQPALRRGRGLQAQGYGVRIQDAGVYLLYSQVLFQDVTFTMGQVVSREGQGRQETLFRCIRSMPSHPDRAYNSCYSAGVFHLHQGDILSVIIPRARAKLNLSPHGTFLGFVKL

FLAG-tagged human BAFF [5] = target: T1, FLAG-tagged human BAFF; assay: KinExA; remark: listed apart in the source
[6] = target: T3, FLAG-tagged recombinant human APRIL; assay: KinExA; remark: listed apart in the source
FLAG-tagged human BAFF [7] = target: T1, FLAG-tagged human BAFF; assay: BIACORE SPR; remark: listed apart in the source
From the text: as §1, with “The standard kinetic assay measures binding kinetics of trimeric ligand (e.g., human BAFF, cynomolgus monkey APRIL, mouse BAFF, or mouse APRIL) coated on sensor chips and dimeric analytes (e.g., variant BCMA-Ig fusion proteins) in the mobile phase. […] For” for “For”
as §2
(§4) The analyses described above were performed on protein preparations of representative variant BCMA ECD-Ig fusion polypeptides, as well as the Z-TACI-Ig and [S40G]huBCMA ECD-Ig control fusion polypeptides, and the data is presented in Table 1.

[8] = target: T2, FLAG-tagged cynomolgous APRIL; assay: BIACORE SPR; remark: listed apart in the source
From the text: as §1, with “The standard kinetic assay measures binding kinetics of trimeric ligand (e.g., human BAFF, cynomolgus monkey APRIL, mouse BAFF, or mouse APRIL) coated on sensor chips and dimeric analytes (e.g., variant BCMA-Ig fusion proteins) in the mobile phase. […] For” for “For”
as §2, §4

membrane-huBAFF = membrane-huBAFF (human, UniProt Q9Y275 1-285); assay: cell-based or functional assay
Variant BAv9-1-Ig = target: T4, Variant BAv9-1-Ig (human, UniProt P01859-1 99-326 = IgG part); assay: BIACORE SPR
T4 construct: domain: Fc; also called Variant 9-1-Ig; BAv9-1-pIg18
From the text: as §1, with “The standard kinetic assay measures binding kinetics of trimeric ligand (e.g., human BAFF, cynomolgus monkey APRIL, mouse BAFF, or mouse APRIL) coated on sensor chips and dimeric analytes (e.g., variant BCMA-Ig fusion proteins) in the mobile phase. […] For” for “For”
as §2, §4

Variant BAv11-6-Ig = target: T5, Variant BAv11-6-Ig (human, UniProt P01859-1 99-326 = IgG part); assay: BIACORE SPR
T5 construct: domain: Fc; also called Variant 11-6-Ig; BAv11-6-PIg18
From the text: as §1, with “The standard kinetic assay measures binding kinetics of trimeric ligand (e.g., human BAFF, cynomolgus monkey APRIL, mouse BAFF, or mouse APRIL) coated on sensor chips and dimeric analytes (e.g., variant BCMA-Ig fusion proteins) in the mobile phase. […] For” for “For”
as §2, §4

Variant 50238475-Ig = target: T6, Variant 50238475-Ig (human, UniProt P01859-1 99-326 = IgG part); assay: BIACORE SPR
T6 construct: domain: Fc; also called Parent 9; Variant 50238475-PIg18
From the text: as §1, with “The standard kinetic assay measures binding kinetics of trimeric ligand (e.g., human BAFF, cynomolgus monkey APRIL, mouse BAFF, or mouse APRIL) coated on sensor chips and dimeric analytes (e.g., variant BCMA-Ig fusion proteins) in the mobile phase. […] For” for “For”
as §2, §4

Variant BAv3-10-Ig = target: T7, Variant BAv3-10-Ig (human, UniProt P01859-1 99-326 = IgG part); assay: BIACORE SPR
T7 construct: domain: Fc; also called Variant 3-10-Ig; BAv3-10-PIg18
From the text: as §1, with “The standard kinetic assay measures binding kinetics of trimeric ligand (e.g., human BAFF, cynomolgus monkey APRIL, mouse BAFF, or mouse APRIL) coated on sensor chips and dimeric analytes (e.g., variant BCMA-Ig fusion proteins) in the mobile phase. […] For” for “For”
as §2, §4

BAv66-Ig = target: T8, BAv66-Ig (human, UniProt P01859-1 99-326 = IgG part); assay: BIACORE SPR
T8 construct: domain: Fc; also called Variant BAv66-Ig
From the text: as §1, with “The standard kinetic assay measures binding kinetics of trimeric ligand (e.g., human BAFF, cynomolgus monkey APRIL, mouse BAFF, or mouse APRIL) coated on sensor chips and dimeric analytes (e.g., variant BCMA-Ig fusion proteins) in the mobile phase. […] For” for “For”
as §2, §4

Variant BAv1-12-Ig = target: T9, Variant BAv1-12-Ig (human, UniProt P01859-1 99-326 = IgG part); assay: BIACORE SPR
T9 construct: domain: Fc; also called Variant 1-12-Ig
From the text: as §1, with “The standard kinetic assay measures binding kinetics of trimeric ligand (e.g., human BAFF, cynomolgus monkey APRIL, mouse BAFF, or mouse APRIL) coated on sensor chips and dimeric analytes (e.g., variant BCMA-Ig fusion proteins) in the mobile phase. […] For” for “For”
as §2, §4

Variant BAv8-10-Ig = target: B1; assay: BIACORE SPR
From the text: as §1, with “The standard kinetic assay measures binding kinetics of trimeric ligand (e.g., human BAFF, cynomolgus monkey APRIL, mouse BAFF, or mouse APRIL) coated on sensor chips and dimeric analytes (e.g., variant BCMA-Ig fusion proteins) in the mobile phase. […] For” for “For”
as §2, §4

Variant BAv9-5-Ig = target: B2; assay: BIACORE SPR
From the text: as §1, with “The standard kinetic assay measures binding kinetics of trimeric ligand (e.g., human BAFF, cynomolgus monkey APRIL, mouse BAFF, or mouse APRIL) coated on sensor chips and dimeric analytes (e.g., variant BCMA-Ig fusion proteins) in the mobile phase. […] For” for “For”
as §2, §4

Variant BAv8-9-Ig = target: T10, Variant BAv8-9-Ig (human, UniProt P01859-1 99-326 = IgG part); assay: BIACORE SPR
T10 construct: domain: Fc; also called Variant 8-9-Ig; BAv8-9-PIg18
From the text: as §1, with “The standard kinetic assay measures binding kinetics of trimeric ligand (e.g., human BAFF, cynomolgus monkey APRIL, mouse BAFF, or mouse APRIL) coated on sensor chips and dimeric analytes (e.g., variant BCMA-Ig fusion proteins) in the mobile phase. […] For” for “For”
as §2, §4

FLAG-tagged human BAFF [9] = target: T1, FLAG-tagged human BAFF; assay: BIACORE SPR; NB = No binding
Experimental: as §1, §2, §3

[10] = target: T2, FLAG-tagged cynomolgous APRIL; assay: BIACORE SPR; NB = No binding
Experimental: as §1, §2, §3

T8 sequence (P01859 other isoform, or with tags, fused parts or gaps limits assumed): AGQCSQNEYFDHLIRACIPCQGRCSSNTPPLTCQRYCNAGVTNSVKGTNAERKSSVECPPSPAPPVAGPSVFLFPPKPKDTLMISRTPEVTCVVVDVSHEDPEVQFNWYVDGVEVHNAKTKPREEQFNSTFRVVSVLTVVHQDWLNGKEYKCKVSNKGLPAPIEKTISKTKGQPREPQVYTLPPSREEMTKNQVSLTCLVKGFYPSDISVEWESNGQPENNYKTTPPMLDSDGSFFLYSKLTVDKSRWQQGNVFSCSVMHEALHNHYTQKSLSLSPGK
T9 sequence (P01859 other isoform, or with tags, fused parts or gaps mutant limits assumed): as the sequence (P01859 other isoform, or with tags, fused parts or gaps limits assumed) above, with H12R, I14V, R15N, G22L counted along it
T6 sequence (P01859 other isoform, or with tags, fused parts or gaps mutant limits assumed): as the sequence (P01859 other isoform, or with tags, fused parts or gaps limits assumed) above, with F10Y, P19S, G22I, T28N, L31P, T32I counted along it
T7 sequence (P01859 other isoform, or with tags, fused parts or gaps mutant limits assumed): as the sequence (P01859 other isoform, or with tags, fused parts or gaps limits assumed) above, with H12R, G22L counted along it
T10 sequence (P01859 other isoform, or with tags, fused parts or gaps mutant limits assumed): as the sequence (P01859 other isoform, or with tags, fused parts or gaps limits assumed) above, with I14L, G22L counted along it
T5 sequence (P01859 other isoform, or with tags, fused parts or gaps mutant limits assumed): as the sequence (P01859 other isoform, or with tags, fused parts or gaps limits assumed) above, with H12R, I14L, G22V counted along it
T4 sequence (P01859 other isoform, or with tags, fused parts or gaps mutant limits assumed): as the sequence (P01859 other isoform, or with tags, fused parts or gaps limits assumed) above, with G22L counted along it

B1
fold improvement over control (FLAG-tagged human BAFF [1]): 13.1 fold | fold improvement over control [2]: 0.75 fold | Selectivity for huBAFF (KD APRIL/KD BAFF) (FLAG-tagged human BAFF [3]): 3.33 ratio | Selectivity for huAPRIL (KD BAFF/KD APRIL) [4]: 0.3 ratio | fold improvement over control (FLAG-tagged human BAFF [5]): 233 fold | fold improvement over control [6]: 0.05 fold | fold improvement KD vs control (FLAG-tagged human BAFF [7]): 5.3 fold | fold improvement KD vs control [8]: 0.3 fold

B2
IC50 (read off the curve) (NFkappaB luciferase signal of HEK293-huBCMA reporter cells stimulated with HEK-293 cells expressing membrane huBAFF) (membrane-huBAFF): ~0.5 nM | Selectivity for huBAFF (KD APRIL/KD BAFF) (FLAG-tagged human BAFF [3]): 2.59 ratio | Selectivity for huAPRIL (KD BAFF/KD APRIL) [4]: 0.39 ratio | fold improvement over control (FLAG-tagged human BAFF [5]): 358 fold | fold improvement over control [6]: 0.1 fold | fold improvement KD vs control (FLAG-tagged human BAFF [7]): 10.9 fold | fold improvement KD vs control [8]: 0.5 fold

B3: 6HIS-tagged murine BAFF (ligand, mouse, UniProt Q9WU72 127-309, looked up)
chain: AFQGPEETEQDVDLSAPPAPCLPGCRHSQHDDNGMNLRNIIQDCLQLIADSDTPTIRKGTYTFVPWLLSFKRGNALEEKENKIVVRQTGYFFIYSQVLYTDPIFAMGHVIQRKKVHVFGDELSLVTLFRCIQNMPKTLPNNSCYSAGIARLEEGDEIQLAIPRENAQISRNGDDTFFGALKLL
notes: also called mBAFF; muBAFF
Kd (Variant BAv9-1-Ig): 0.015 nM | Kd (Variant BAv11-6-Ig): 0.0181 nM | Kd (Variant 50238475-Ig): 0.0264 nM | Kd (Variant BAv3-10-Ig): 0.0149 nM | Kd (BAv66-Ig): 0.0623 nM | Kd (Variant BAv1-12-Ig): 0.0339 nM | Kd (Variant BAv8-10-Ig): 0.0171 nM | Kd (Variant BAv9-5-Ig): 0.0216 nM | Kd (Variant BAv8-9-Ig): 0.0149 nM

B4: BAv68-Ig (Fc fusion)
chain: AGQCSQNEYFDSLIRACQPCQVRCSSNTPPLTCQRYCNAGVTNSVKGTNA
notes: not shown: PIg18: human IgG2 Fc, Ser at Fc positions 4, 5, 11 (native Cys)
binding result (FLAG-tagged human BAFF [9]): no binding (tested: 150 nM) | binding result [10]: no binding (tested: 150 nM)

B5: BAv70-Ig (Fc fusion)
chain: AGQCSQNEYFDHLIRACQPCQLRCSSNTPPLTCQRYCNAGVTNSVKGTNA
notes: as for B4
binding result (FLAG-tagged human BAFF [9]): no binding (tested: 150 nM) | binding result [10]: no binding (tested: 150 nM)

B6: BAv77-Ig (Fc fusion)
chain: AGQCSQNEYFDHLVRACIPCQVTCSSNTPPLTCQRYCNAGVTNSVKGTNA
notes: as for B4
binding result (FLAG-tagged human BAFF [9]): no binding (tested: 150 nM) | binding result [10]: no binding (tested: 150 nM)

B7: BAv69-Ig (Fc fusion)
chain: AGQCSQNEYFDHLVRACQPCQLRCSSNTPPLTCQRYCNAGVTNSVKGTNA
notes: as for B4
binding result (FLAG-tagged human BAFF [9]): no binding (tested: 150 nM) | binding result [10]: no binding (tested: 150 nM)

B8: BAv76-Ig (Fc fusion)
chain: AGQCSQNEYFDHLIRACIPCQVTCSSNTPPLTCQRYCNAGVTNSVKGTNA
notes: as for B4
binding result (FLAG-tagged human BAFF [9]): no binding (tested: 150 nM) | binding result [10]: no binding (tested: 150 nM)
